Three molecules from patent publication US20230357444A1 (published 2023) can be followed below.

Test [1] deals with T1, human CD3 (native CD3 complex on human T cells) (human, UniProt P07766 23-207).
T1 construct: whole, on cells; also called human CD3+ T cell line HPB-ALL; human CD3 positive PBMC
As to the kind of experiment: FACS, HPB-ALL.

Test [2] addresses T2, 1-27 CD3-Fc (N-terminal amino acids 1-27 of the mature human CD3 epsilon chain fused to the hinge and Fc … (human)).
T2 construct: The construct was made with a 19 aa immunoglobulin leader; also called 27 aa huCD3E; human CD3 epsilon (aa 1-27)-Fc fusion protein
Kind of test: SPR (Biacore), 1-27 CD3-Fc immobilised.

Numbering of substitutions follows the chain as printed. Numbers in names are those of the source.

T1 sequence (P07766 23-207, one chain of several): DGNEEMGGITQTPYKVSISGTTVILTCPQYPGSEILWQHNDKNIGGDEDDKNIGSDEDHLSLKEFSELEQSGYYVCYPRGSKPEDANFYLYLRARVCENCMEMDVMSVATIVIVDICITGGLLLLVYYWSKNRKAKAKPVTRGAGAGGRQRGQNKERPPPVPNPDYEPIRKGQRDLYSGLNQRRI

B1: MCSP-G4 HLP × E2M HLP (bispecific antibody)
chain: QVQLVQSGAEVKRPGASMKVSCKASGYTFTNYYIHWVRQAPGQGLEWMGWINPNSGATNYAQKFQGRVTMTRDTSTSTVYMELSSLRSEDTAVYYCAKSWVSWFASWGQGTLVTVSSGGGGSGGGGSGGGGSELVMTQSPDSLAVSLGERATINCKSSQSVLNSSNNRNYLAWYQQKPGQPPKLLIYWASTRESGVPDRFSGSGSGTDFTLTISGLQAEDVAVYYCQQHYSTPFTFGPGTKVDIKSGGGGSEVQLLESGGGLVQPGGSLKLSCAASGFTFNGYAMNWVRQAPGKGLEWVARIRSKYNNYATYYADSVKERFTISRDDSKNTAYLQMNNLKTEDTAVYYCVRHRNFGNSYLSWFAYWGQGTLVTVSSGGGGSGGGGSGGGGSELVVTQEPSLTVSPGGTVTLTCRSSTGAVTSGYYPNWVQQKPGQAPRGLIGATDMRPSGTPARFSGSLLGGKAALTLSGVQPEDEAEYYCALWYSNRWVFGGGTKLTVLHHHHHH
In the case of B1, in test [1], the binding result was “binds”.

B2: EGFR-21-63 LH × A2J HLP (bispecific antibody)
chain: DIVLTQSPASLPVSLGQRATISCRASQSVSSSTYSYIHWYQQKPGQPPKLLITYASNLESGVPARFSGSGSGTDFTLDIHPVEEDDSSTYYCQHSWEIPFTFGSGTKLEIKGGGGSGGGGSGGGGSQVQLQQSGPDLVKPGASVKMSCKASGHTFTDCVIIWVKQRAGQGLEWIGQIYPGTGRSYYNEIFKGKATLTADKSSNTVHIQLSSLTSEDSAVYFCALSTLIHGTWFSYWGQGTLVTVSSGGGGSEVQLLESGGGLVQPGGSLKLSCAASGFTFNVYAMNWVRQAPGKGLEWVARIRSKYNNYATYYADSVKKRFTISRDDSKNTAYLQMNNLKTEDTAVYYCVRHGNFGNSYLSWWAYWGQGTLVTVSSGGGGSGGGGSGGGGSELVVTQEPSLTVSPGGTVTLTCRSSTGAVTSGYYPNWVQQKPGQAPRGLIGATDMRPSGTPARFSGSLLGGKAALTLSGVQPEDEAEYYCALWYSNRWVFGGGTKLTVLHHHHHH
notes: also called EGFR LH × A2J HLP
In the case of B2, in test [2], the dissociation constant Kd worked out at 249 nM.

B3: EGFR-21-63 LH × E2M HLP (bispecific antibody)
chain: B2 chain with V282G, K319E, G353R, W363F
notes: also called EGFR LH × E2M HLP
B3 returned a Kd in test [2] of 2460 nM.
